Assay: yeast display, Sf9 membrane polyspecificity reagent, FACS + sequencing; frameworks hold sequencing errors
Summary of the method: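 After 36–48 hours of galactose induction, yeast (Saccharomyces cerevisiae BJ5465) displaying a synthetic nanobody library were stained at 4 °C for 1 hour with 10% biotinylated, detergent-solubilized Sf9 membrane reagent. Streptavidin microbeads enriched the stained cells before FACS sorting into low and high (top ~1%) gates on anti-HA and streptavidin fluorescence. Each clone's polyreactivity label reflects its gate of origin.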

QVQLVESGGGLVQAGGSLRLSCAASGLTFPHNAMGWYRQAPGKERELVAAITSSGGSTYYADSVKGRFTISRDNAKNTVYIQMNSLKPEDTAVYYCAAKRKPRPSYRYGYWGQGTQVTVSS
polyreactivity (PSR sort gate): high polyreactivity

QVQLVESGGGLVQAGGSLRLSCAASGLTFPIYAMGWYRQAPGKEREFVAVNTTSGGSTYYADSVKGRFTISRDNAKNTVYLQMNILKPEDTAVYYCNARPEYTYWPGYIYWGEGTQVTVSS
polyreactivity (PSR sort gate): high polyreactivity

QVQLVESGGGLVQAGGSLRLSCAASGLTFPNNGMGWYRQAPGKERELVAAIRSSGGSTYYADSVKGRFTISRDNAKNTVYLQMNSLKPEDTAVYYCNARRRGGYVGRPRYPVAAYDYWGQGTQVTVSS
polyreactivity (PSR sort gate): low polyreactivity

QVQLVESGGGLVQAGGSLRLSCAASGLTFPPNAMGWYRQAPGKEREFVAVISSGGGSTYYADSVKGRFTISRDNAKNTVYLQMNSLKPEDTAVYYCNTYYWYSGSPYDYWGQGTQVTVSS
polyreactivity (PSR sort gate): low polyreactivity

QVQLVESGGGLVQAGGSLRLSCAASGLTFPQYAMGWYRQAPGKERELVAAISKTGGSTYYADSVKGRFTISRDNAKNTVYLQMNSLKPEDTAVYYCAAVESGDRGQRINYWGQGTQVTVAS
polyreactivity (PSR sort gate): high polyreactivity

QVQLVESGGGLVQAGGSLRLSCAASGLTFPRYAMGWYRQAPGIERELVAAISYRGSRTYYADSVKGRFTISRDNAKNTVYLQMNSLKPEDSAVYYCNKVRPGYGVTYLVGYWGQGTQVTVSS
polyreactivity (PSR sort gate): high polyreactivity

QVQLVESGGGLVQAGGSLRLSCAASGLTFPSNAMGWYRPAPGKERELVAAISKRGGRTYYADSVKGRFTISRDNAKNTVYLQMNSLKPEDTAVYYCATPYAYPGTVQYAGYNYWGQGTQVTVSS
polyreactivity (PSR sort gate): high polyreactivity

QVQLVESGGGLVQAGGSLRLSCAASGLTFPWYAMGWYRQAPGKERELVAGISWSGGSTYYADSVKGRFTISRDNAKNTVYLQMNSLKPEDTAVYYCAARVWYYDYWGQGTQVTVSS
polyreactivity (PSR sort gate): high polyreactivity

QVQLVESGGGLVQAGGSLRLSCAASGLTFPYYAMGWYRQAPGKERELVAGISDSGDSTYYADSVKGRFTISRDNAKNTVYLQMNSLKPEDTAVYYCNAYFRYSYDYWGQGTQVTVSS
polyreactivity (PSR sort gate): high polyreactivity

QVQLVESGGGLVQAGGSLRLSCAASGLTFQGYAMGWYRQAPGKERELVAAISGSGGSTYYADSVKGRFTISRDNAKNTVYLQMNSLKPEDTAVYYCAADDSYYGIDYGYWGQGTQVTVSS
polyreactivity (PSR sort gate): low polyreactivity

QVQLVESGGGLVQAGGSLRLSCAASGLTFRANAMGWYRQAPGKERELVAAISWRGGGTYYADSVKGRFTISRDNAKNTVYLQMNSLKPEDTAVYYCDAKTQNAYYWGQGTQVTVSS
polyreactivity (PSR sort gate): low polyreactivity

QVQLVESGGGLVQAGGSLRLSCAASGLTFRAYAMGWYRLAPGKERELVAAITWSGTRTYYADSVKGRFTISRDNAKNTVYLQMNSLKPEDTAVYYCARGHTKVKYDYWGQGTQVTVSS
polyreactivity (PSR sort gate): low polyreactivity

QVQLVESGGGLVQAGGSLRLSCAASGLTFRDNAMGWYRQAPGTERELVATMNSGGSTDYADSVKGRFTISRHNAKNTVYLQMNSLKPEDTAVYYCAVYREYYDRGWYSIFYWYDYWGQGTQVTVSS
polyreactivity (PSR sort gate): low polyreactivity

QVQLVESGGGLVQAGGSLRLSCAASGLTFRGYAMGWYRQAPGKERELVAAITSSAGRTYYADSVKGRFTISRDNAKNTVYLQLNSLKQEDTAVYYCAAAHSYTTRWGYYKFNYWGQGTKVTVSS
polyreactivity (PSR sort gate): high polyreactivity

QVQLVESGGGLVQAGGSLRLSCAASGLTFRGYTMGWYRQAPGKERELVARITYSGGSTYYADSVKGRFTISRDNAKNTVYLQMNSLKPEDTAVYYCAKEIWRHWTGDYWGQGTQVTVSS
polyreactivity (PSR sort gate): high polyreactivity

QVQLVESGGGLVQAGGSLRLSCAASGLTFRPNAMGWYRQAPGKERELVAAITWRGGRTYYADSVKGRFTISRDNAKNTVYLQMNSLKPEDTAVYYCAADSPYRGRPGPLNYGGDYWGQGTQVTVSS
polyreactivity (PSR sort gate): high polyreactivity

QVQLVESGGGLVQAGGSLRLSCAASGLTFRSYAMGWYRPAPGKEREFVAAITGSGDTTYYADSVKGRFTISRDNAKNTVYLQMNSLKPEDTAVYYCNADRDYLWITLYEYWGQGTQVTVSS
polyreactivity (PSR sort gate): high polyreactivity

QVQLVESGGGLVQAGGSLRLSCAASGLTFRWYAMGWYRQAPGKERELVAAISWSGGSTYYADSVKGRFTISRDNAKNTVYLQMNSLKPEDTAVDYCAASYYADRSKAYDYWGQGTQLTVSS
polyreactivity (PSR sort gate): high polyreactivity

QVQLVESGGGLVQAGGSLRLSCAASGLTFRYNAMGWYRQAPGKERELVAAIRTSGGSTYYADSVKGRFTISRDNAKNTVYLQMNSLKPEDTAVYYCAARSKSYYGGYARGYWGQGTQVTVSS
polyreactivity (PSR sort gate): high polyreactivity

QVQLVESGGGLVQAGGSLRLSCAASGLTFRYYAMGWYREAPGKEREFVAAITSSGGSTDYADSVKGRFTISRDNAKNSVYLQMNSVKPDDTGVFYCAAATNTQESVPMYYWGQGTQVTVSS
polyreactivity (PSR sort gate): low polyreactivity

QVQLVESGGGLVQAGGSLRLSCAASGLTFRYYAMGWYRQAPGKERELVAAITRRGSTYYADSVKGRFTISRDNAKNTVYLQMNSLKPEDTAVYYCATVTGFHSSPLRDLDYWGQGTQVTVSS
polyreactivity (PSR sort gate): high polyreactivity

QVQLVESGGGLVQAGGSLRLSCAASGLTFRYYAMGWYRQAPGKERELVAAITRRGSTYYADSVQGRFTISRDNAKNTVYLQMNSLKPEDTAVYYCAADDPYTPQYPDVTYDYWGQGTQVTVSS
polyreactivity (PSR sort gate): high polyreactivity

QVQLVESGGGLVQAGGSLRLSCAASGLTFRYYAMGWYRQAPGKEREWVASITSRGTSTYYADSVKGRFTISRDNAKNTVYLQMNSLKPEDTAVYYCAKPVGTVGYDYWGQGTQVTVSS
polyreactivity (PSR sort gate): high polyreactivity

QVQLVESGGGLVQAGGSLRLSCAASGLTFRYYGMGWYRQAPGKERELVAAITSSGGSTRYADSVKGRFTISRDNAKNTVYLQMNSLKPEDTAVYYCAASTWYGYDYWGQGTQVTVSS
polyreactivity (PSR sort gate): high polyreactivity

QVQLVESGGGLVQAGGSLRLSCAASGLTFSDYAMGWYRQAPGKEREFVAAITRNGASTRYADSVKGRFTISRDNAKNTVYLQMNRLKPEDTAVYYCSTDVGFGRKQRPHRPGYGYWGQGTQVTVSS
polyreactivity (PSR sort gate): low polyreactivity

QVQLVESGGGLVQAGGSLRLSCAASGLTFSINAMGWYIQAPGKERELVAAISRSGGRTYYADSVKGRFTISRDNAKNTVYLQMNSLKPEDTAVYYCAADKTQSHYDYWGQGTQVTVSS
polyreactivity (PSR sort gate): high polyreactivity

QVQLVESGGGLVQAGGSLRLSCAASGLTFSIYAMGWYRQAPGKERELVAAISSTGSTNYADSVKGRFTISRDNAKNTVYLQMNSLKPEDTAVYYCAAELQPSPVGGIIQYGFDYWGQGTQVTVSS
polyreactivity (PSR sort gate): low polyreactivity

QVQLVESGGGLVQAGGSLRLSCAASGLTFSNYAMGWYRQAPGKEREFVAAISASGGSTYYAHSVKGRFTISRDYAKNTVYLQMNRLTPEDTAVYYCAASTTRPVYPANDDYWGQGTQVTVSS
polyreactivity (PSR sort gate): low polyreactivity

QVQLVESGGGLVQAGGSLRLSCAASGLTFSPYAMGWYRQAPGKERELVAAISYSGGSTYYADSVKGRFTISRDNAKNTVYLQMISLKPEDTAVYYCAVVVPNLLRDGRRMYYWGQGTQVTVSS
polyreactivity (PSR sort gate): high polyreactivity

QVQLVESGGGLVQAGGSLRLSCAASGLTFSRYAMGWYRQAPGKERELVAAISRRGGITYYADSVKGRFTISRDNAKNTVYLQMNSLKPEDTAVYYCNKDYGGELDYWGQGTQVSVSS
polyreactivity (PSR sort gate): high polyreactivity

QVQLVESGGGLVQAGGSLRLSCAASGLTFSTNAMGWYRQAPGKEREFVAAISFNGGSTYYADSVKGRFTISRDNAKNTVYLQMNSLKPEDTAVYYWNAVKYRYLEYNYWGQGTQVTVSS
polyreactivity (PSR sort gate): high polyreactivity

QVQLVESGGGLVQAGGSLRLSCAASGLTFSTYDMGGYRQAPGKERELVAAITSGDGSTYYADSVKGRFTISRDNAKNTVYLQMNSLKPEDTAVYYCAADYLEWYGDVLFPYDYWGQGTQVTVSS
polyreactivity (PSR sort gate): low polyreactivity

QVQLVESGGGLVQAGGSLRLSCAASGLTFSTYDMGWYRQAPGKERELVAAITSGDGSTYYADSVKGRFTISRDTAKNTVYLQMNSLKPEDTAVYYCAADYLEWYGDVLFPYDYWGQGTQVTVSS
polyreactivity (PSR sort gate): low polyreactivity

QVQLVESGGGLVQAGGSLRLSCAASGLTFSVYAMGWYRQAPGKERELVASISSGGTSTYYADSVKGRFTISRDNAKNTVYLQMNSLKPEDTAVYYCAAYSYYTGDQYSYDYWGQGTQVTVSS
polyreactivity (PSR sort gate): low polyreactivity

QVQLVESGGGLVQAGGSLRLSCAASGLTFSWNAMGWYRQAPGKERELVAAISSRGGSTYYADSVKGRFKISRDNAKNTVYLQMNSLKPEDTAVYYCNAHGRRFLGDYGYWGQGTQVTVSS
polyreactivity (PSR sort gate): low polyreactivity

QVQLVESGGGLVQAGGSLRLSCAASGLTFSYYTMGWYRQAPGKERELVAAISKSAGSTYYADSVKGRFTISRDNAKNTVYLQMNSLKPEDTAVYYCAARFGYQYSYGYNYWGQGTQVTVSS
polyreactivity (PSR sort gate): high polyreactivity

QVQLVESGGGLVQAGGSLRLSCAASGLTFTHYALGWYRQAPGKERELVAAIAWRGGSTYYADSVKGRFTISRDNAKNTVYLQMNSLKPEDTAVYYCAVARSYRGEMDYWGQGTQVTVSS
polyreactivity (PSR sort gate): low polyreactivity

QVQLVESGGGLVQAGGSLRLSCAASGLTFTNYAMGWYRQAPGKERELVAAISRSGARTYYADSVKGRFTISRDNAKNTVYLQMNSLKPEDTAVYYCATRYLSRGVYNYDYWGQGTQVTVSS
polyreactivity (PSR sort gate): high polyreactivity

QVQLVESGGGLVQAGGSLRLSCAASGLTFTPYTMGWYRQAPGKERELVAAITSSAARTYYADSVKGRFTISRDKAKNTVYFQMNSLKPEDTAVYYCNRYRLPSGRYEYWGQGTQVTVSS
polyreactivity (PSR sort gate): high polyreactivity

QVQLVESGGGLVQAGGSLRLSCAASGLTFTRYTMGWYRQAPGKERELVAAITSSGGSTYYADSVKGRFTISRDNAKNTVYLQMNSLKPEDTAVYYCAARYPGTRGDGYWGQGTQVTVSS
polyreactivity (PSR sort gate): high polyreactivity

QVQLVESGGGLVQAGGSLRLSCAASGLTFTSYAMGWYRQAPGKERELVAAITSGGSTYFADSVKGRFTISRDNAKNTVYLQMNSLKPEDTAVYYCNVTVYTRWYRSHSFWSTFRMDYWGQGTQVTVSS
polyreactivity (PSR sort gate): low polyreactivity

QVQLVESGGGLVQAGGSLRLSCAASGLTFTTYAMGWYRPAPGKERELVASIRTGGSTNYADSVKGRFTISRDNAKNTVYLQMNSLKPEETAVYYCAAGRRIDKRYEYWGQGTQFTVSS
polyreactivity (PSR sort gate): low polyreactivity

QVQLVESGGGLVQAGGSLRLSCAASGLTFVFYAMGWYRQAPGKERELVAAISSSGGSTNYADSVKGRFTISRDNAKNTVYLQMNSLKPEDTAVYYCNARGRSGGGRYDYWGQGTQVTVSS
polyreactivity (PSR sort gate): high polyreactivity
